Data: US20120328590A1

Biological target: actin (endogenous nuclear and cytoplasmic actin of Mel-Juso human melanoma cells) (human)
Assay: cell-based or functional assay

Row | Substance | TUNEL-positive (apoptotic) cells by laser scanning cytometry, mean | cell survival in Colony Forming Assay (CFA), compared to Cat-GFP control
1 | DNase 1 construct C11 (signal peptide deleted, A114F actin-binding-site mutation, SV-40 NLS at the C-terminus) (from UniProt P24855 23-282) (enzyme) | 11% | 23.2%
2 | DNase 1 construct C13 (signal peptide deleted, A114F actin-binding-site mutation, SV-40 NLS at the N-terminus) (from UniProt P24855 23-282) (enzyme) | 5.4% | 32.4%
